Laboratory results: article PMC3681763 (2013)

B2: (C2)RAGE-GFP (domain or fragment)
chain: EPVPLEEVQLVVEPEGGAVAPGGTVTLTCEVPAQPSPQIHWMKDGVPLPLPPSPVLILPEIGPQDQGTYSCVATHSSHGPQESRAVSISIIEPGEEGPTAGSVGGS

What was measured:
Assay in all cases: ELISA
[1] = target: B2
[2] = target: Peptide aptamer PA #71 (anti-C2 domain), purified, in the D26A, K57E Thioredoxin scaffold (E. coli, UniProt P0AA25 = thioredoxin)
[3] = target: Apt#31
[4] = target: Apt#48
[5] = target: Peptide aptamer PA #27 (anti-C1 domain), purified, in the D26A, K57E Thioredoxin scaffold (E. coli, UniProt P0AA25 = thioredoxin)
[6] = target: Peptide aptamer PA #44 (anti-V domain), purified, in the D26A, K57E Thioredoxin scaffold (E. coli, UniProt P0AA25 = thioredoxin)

B1: Peptide aptamer PA #103 (anti-C2 domain), purified, in the D26A, K57E Thioredoxin scaffold (designed binder)
chain: SDKIIHLTDDSFDTDVLKADGAILVAFWAEWIQLRVRMKLVKMIAPILDEIADEYQGKLTVAELNIDQNPGTAPKYGIRGIPTLLLFKNGEVAATKVGALSKGQLKEFLDANLA
A Kd [1] of 1.34 µM was found for B1 in this work.

A Kd [2] of 14.5 µM was found for B2 in this work.

B3: (VC1)RAGE-GFP (domain or fragment)
chain: AQNITARIGEPLVLKCKGAPKKPPQRLEWKLNTGRTEAWKVLSPQGGGPWDSVARVLPNGSLFLPAVGIQDEGIFRCQAMNRNGKETKSNYRVRVYQIPGKPEIVDSASELTAGVPNKVGTCVSEGSYPAGTLSWHLDGKPLVPNEKGVSVKEQTRRHPETGLFTLQSELMVTPARGGDPRPTFSCSFSPGLPRHRALRTAPIQPRVWEPVPLEEVQLVVEPEG
A Kd [3] of 0.042 µM, a Kd [4] of 0.152 µM and a Kd [5] of 0.032 µM were found for B3 in this work. It also gave a Kd [6] of 0.164 µM.
